The source of these data is patent EP4803150A2 (Lyvgen Biopharma Holdings Limited, dated 2026).

The target in the assay is T1, CD137 (human, UniProt Q07011 24-186).
T1 construct: Whole on GS-H2-huCD137 reporter cells in the reporter assays; also called 4-1BB
As to the kind of experiment: FCM or ELISA, graded. (In general: An ELISA detects its analyte on a solid surface through an enzyme-linked reagent.)

B1: Ly2936 (multi-specific antibody)
chain 1: QVQLVQSGAEVKKPGASVKVSCKASGYTFTSYVMHWVRQKPGQGLEWIGYINPYNEGTESTDKFKGRATMTSDKSTSTVYMELSSLRSEDTAVYYCASIYYGYEGTYFGVWGQGTLVTVSSASTKGPSVFPLAPSSKSTSGGTAALGCLVKDYFPEPVTVSWNSGALTSGVHTFPAVLQSSGLYSLSSVVTVPSSSLGTQTYICNVNHKPSNTKVDKKVEPKSCGGGGSGGGGSGGGGSGGGGSEVQLVESGGGLVQPGGSLRLSCAASGFTFSTYAMNWVRQAPGKGLEWVGRIRSKYNNYATYYADSVKGRFTISRDDSKNSLYLQMNSLKTEDTAVYYCVRHGNFGNSYVSWFAYWGQGTLVTVSSGGGGSDKTHTCPPCPAPELLGPSVFLFPPKPKDTLMISRTPEVTCVVVDVSHEDPEVKFNWYVDGVEVHNAKTKPREEQYNSTYRVVSVLTVLHQDWLNGKEYKCKVSNKALGAPIEKTISKAKGQPREPQVYTLPPSREEMTKNQVSLWCLVKGFYPSDIAVEWESNGQPENNYKTTPPVLDSDGSFFLYSKLTVDKSRWQQGNVFSCSVMHEALHNHYTQKSLSLSPGKGGGGSGGGGSGGGGSGGGGSQVQLVQSGAEVKKPGASVKVSCKASGYTFAGFEMHWVRQAPGQGLEWMGAIDPKTGGTDYNQKFKDRVTMTRDTSISTAYMELSRLRSDDTAVYYCARDLGYFDVWGQGTLVTVSS
chain 2: QVQLVQSGAEVKKPGASVKVSCKASGYTFTSYVMHWVRQKPGQGLEWIGYINPYNEGTESTDKFKGRATMTSDKSTSTVYMELSSLRSEDTAVYYCASIYYGYEGTYFGVWGQGTLVTVSSASTKGPSVFPLAPSSKSTSGGTAALGCLVKDYFPEPVTVSWNSGALTSGVHTFPAVLQSSGLYSLSSVVTVPSSSLGTQTYICNVNHKPSNTKVDKKVEPKSCGGGGSGGGGSGGGGSGGGGSQAVVTQEPSLTVSPGGTVTLTCRSSTGAVTTSNYANWVQQKPGQAPRGLIGGTNKRAPWTPARFSGSLLGGKAALTITGAQAEDEADYYCALWYSNLWVFGGGTKLTVLGGGGSDKTHTCPPCPAPELLGPSVFLFPPKPKDTLMISRTPEVTCVVVDVSHEDPEVKFNWYVDGVEVHNAKTKPREEQYNSTYRVVSVLTVLHQDWLNGKEYKCKVSNKALGAPIEKTISKAKGQPREPQVYTLPPSREEMTKNQVSLSCAVKGFYPSDIAVEWESNGQPENNYKTTPPVLDSDGSFFLVSKLTVDKSRWQQGNVFSCSVMHEALHNRFTQKSLSLSPGKGGGGSGGGGSGGGGSGGGGSDIQMTQSPSSLSASVGDRVTITCRASQDIRSNLNWYQQKPGGAVKLLIYYTSRLHSGVPSRFSGSGSGTDYTLTISSLQPEDFATYFCQQSEKLPRTFGGGTKVEIR
chain 3: EIVLTQSPATLSLSPGERATLSCRASSSVSYMHWYQQKPGQAPRPWIYATSNLASGIPARFSGSRSGTDYTLTISSLEPEDFAVYYCQQWSSNTLTFGGGTKVEIKRTVAAPSVFIFPPSDEQLKSGTASVVCLLNNFYPREAKVQWKVDNALQSGNSQESVTEQDSKDSTYSLSSTLTLSKADYEKHKVYACEVTHQGLSSPVTKSFNRGEC
notes: B7H3/CD3/CD137
Take B1: the binding result is reported as “binds”.

B2: Ly2937 (multi-specific antibody)
chain 1: not shown
chain 2: QVQLVQSGAEVKKPGASVKVSCKASGYTFTSYVMHWVRQKPGQGLEWIGYINPYNEGTESTDKFKGRATMTSDKSTSTVYMELSSLRSEDTAVYYCASIYYGYEGTYFGVWGQGTLVTVSSASTKGPSVFPLAPSSKSTSGGTAALGCLVKDYFPEPVTVSWNSGALTSGVHTFPAVLQSSGLYSLSSVVTVPSSSLGTQTYICNVNHKPSNTKVDKKVEPKSCGGGGSGGGGSGGGGSGGGGSQIVLTQSPAIMSASPGEKVTMTCSASSSVSYMNWYQQKSGTSPKRWIYDTSKLASGVPAHFRGSGSGTSYSLTISGMEAEDAATYYCQQWSSNPFTFGSGTKLEINGGGGSDKTHTCPPCPAPELLGPSVFLFPPKPKDTLMISRTPEVTCVVVDVSHEDPEVKFNWYVDGVEVHNAKTKPREEQYNSTYRVVSVLTVLHQDWLNGKEYKCKVSNKALGAPIEKTISKAKGQPREPQVYTLPPSREEMTKNQVSLSCAVKGFYPSDIAVEWESNGQPENNYKTTPPVLDSDGSFFLVSKLTVDKSRWQQGNVFSCSVMHEALHNRFTQKSLSLSPGKGGGGSGGGGSGGGGSGGGGSDIQMTQSPSSLSASVGDRVTITCRASQDIRSNLNWYQQKPGGAVKLLIYYTSRLHSGVPSRFSGSGSGTDYTLTISSLQPEDFATYFCQQSEKLPRTFGGGTKVEIR
chain 3: B1 chain 3
notes: B7H3/CD3/CD137
For the molecule B2, the binding result is listed as “binds”.

B3: Ly2940 (bispecific antibody, human IgG1, kappa)
chain 1: QVQLVQSGAEVKKPGASVKVSCKASGYTFTSYVMHWVRQKPGQGLEWIGYINPYNEGTESTDKFKGRATMTSDKSTSTVYMELSSLRSEDTAVYYCASIYYGYEGTYFGVWGQGTLVTVSSASTKGPSVFPLAPSSKSTSGGTAALGCLVKDYFPEPVTVSWNSGALTSGVHTFPAVLQSSGLYSLSSVVTVPSSSLGTQTYICNVNHKPSNTKVDKKVEPKSCDKTHTCPPCPAPELLGPSVFLFPPKPKDTLMISRTPEVTCVVVDVSHEDPEVKFNWYVDGVEVHNAKTKPREEQYNSTYRVVSVLTVLHQDWLNGKEYKCKVSNKALGAPIEKTISKAKGQPREPQVYTLPPSREEMTKNQVSLWCLVKGFYPSDIAVEWESNGQPENNYKTTPPVLDSDGSFFLYSKLTVDKSRWQQGNVFSCSVMHEALHNHYTQKSLSLSPGKGGGGSGGGGSGGGGSGGGGSQVQLVQSGAEVKKPGASVKVSCKASGYTFAGFEMHWVRQAPGQGLEWMGAIDPKTGGTDYNQKFKDRVTMTRDTSISTAYMELSRLRSDDTAVYYCARDLGYFDVWGQGTLVTVSS
chain 2: QVQLVQSGAEVKKPGASVKVSCKASGYTFTSYVMHWVRQKPGQGLEWIGYINPYNEGTESTDKFKGRATMTSDKSTSTVYMELSSLRSEDTAVYYCASIYYGYEGTYFGVWGQGTLVTVSSASTKGPSVFPLAPSSKSTSGGTAALGCLVKDYFPEPVTVSWNSGALTSGVHTFPAVLQSSGLYSLSSVVTVPSSSLGTQTYICNVNHKPSNTKVDKKVEPKSCDKTHTCPPCPAPELLGPSVFLFPPKPKDTLMISRTPEVTCVVVDVSHEDPEVKFNWYVDGVEVHNAKTKPREEQYNSTYRVVSVLTVLHQDWLNGKEYKCKVSNKALGAPIEKTISKAKGQPREPQVYTLPPSREEMTKNQVSLSCAVKGFYPSDIAVEWESNGQPENNYKTTPPVLDSDGSFFLVSKLTVDKSRWQQGNVFSCSVMHEALHNRFTQKSLSLSPGKGGGGSGGGGSGGGGSGGGGSDIQMTQSPSSLSASVGDRVTITCRASQDIRSNLNWYQQKPGGAVKLLIYYTSRLHSGVPSRFSGSGSGTDYTLTISSLQPEDFATYFCQQSEKLPRTFGGGTKVEIR
chain 3: B1 chain 3
notes: B7H3/CD137; anti-CD137 Fv on C-terminal
In the case of B3, the binding result was “binds”.

B4: Ly2823 (multi-specific antibody)
chain 1: EVQLVESGGGLVKPGGSLKLSCEASRFTFSSYAMSWVRQTPEKRLEWVAAISGGGRYTYYPDSMKGRFTISRDNAKNFLYLQMSSLRSEDTAMYYCARHYDGYLDYWGQGTTLTVSSASTKGPSVFPLAPSSKSTSGGTAALGCLVKDYFPEPVTVSWNSGALTSGVHTFPAVLQSSGLYSLSSVVTVPSSSLGTQTYICNVNHKPSNTKVDKKVEPKSCGGGGSGGGGSGGGGSGGGGSEVQLVESGGGLVQPGGSLRLSCAASGFTFSTYAMNWVRQAPGKGLEWVGRIRSKYNNYATYYADSVKGRFTISRDDSKNSLYLQMNSLKTEDTAVYYCVRHGNFGNSYVSWFAYWGQGTLVTVSSGGGGSDKTHTCPPCPAPELLGPSVFLFPPKPKDTLMISRTPEVTCVVVDVSHEDPEVKFNWYVDGVEVHNAKTKPREEQYNSTYRVVSVLTVLHQDWLNGKEYKCKVSNKALGAPIEKTISKAKGQPREPQVYTLPPSREEMTKNQVSLWCLVKGFYPSDIAVEWESNGQPENNYKTTPPVLDSDGSFFLYSKLTVDKSRWQQGNVFSCSVMHEALHNHYTQKSLSLSPGKGGGGSGGGGSGGGGSGGGGSQVQLVQSGAEVKKPGASVKVSCKASGYTFAGFEMHWVRQAPGQGLEWMGAIDPKTGGTDYNQKFKDRVTMTRDTSISTAYMELSRLRSDDTAVYYCARDLGYFDVWGQGTLVTVSS
chain 2: EVQLVESGGGLVKPGGSLKLSCEASRFTFSSYAMSWVRQTPEKRLEWVAAISGGGRYTYYPDSMKGRFTISRDNAKNFLYLQMSSLRSEDTAMYYCARHYDGYLDYWGQGTTLTVSSASTKGPSVFPLAPSSKSTSGGTAALGCLVKDYFPEPVTVSWNSGALTSGVHTFPAVLQSSGLYSLSSVVTVPSSSLGTQTYICNVNHKPSNTKVDKKVEPKSCGGGGSGGGGSGGGGSGGGGSQAVVTQEPSLTVSPGGTVTLTCRSSTGAVTTSNYANWVQQKPGQAPRGLIGGTNKRAPWTPARFSGSLLGGKAALTITGAQAEDEADYYCALWYSNLWVFGGGTKLTVLGGGGSDKTHTCPPCPAPELLGPSVFLFPPKPKDTLMISRTPEVTCVVVDVSHEDPEVKFNWYVDGVEVHNAKTKPREEQYNSTYRVVSVLTVLHQDWLNGKEYKCKVSNKALGAPIEKTISKAKGQPREPQVYTLPPSREEMTKNQVSLSCAVKGFYPSDIAVEWESNGQPENNYKTTPPVLDSDGSFFLVSKLTVDKSRWQQGNVFSCSVMHEALHNHYTQKSLSLSPGKGGGGSGGGGSGGGGSGGGGSDIQMTQSPSSLSASVGDRVTITCRASQDIRSNLNWYQQKPGGAVKLLIYYTSRLHSGVPSRFSGSGSGTDYTLTISSLQPEDFATYFCQQSEKLPRTFGGGTKVEIR
chain 3: DIVMTQSHKFMSTSIGARVSITCKASQDVRTAVAWYQQKPGQSPKLLIYSASYRYTGVPDRFTGSGSGTDFTFTISSVQAEDLAVYYCQQHYGTPPWTFGGGTKLEIKRTVAAPSVFIFPPSDEQLKSGTASVVCLLNNFYPREAKVQWKVDNALQSGNSQESVTEQDSKDSTYSLSSTLTLSKADYEKHKVYACEVTHQGLSSPVTKSFNRGEC
notes: B7H3/CD3/CD137
With B4, the binding result is “binds”.
